According to patent US20250177447A1:

Target: G protein-coupled receptor class C group 5 member D (GPRC5D) on tumor cells (MM.1S, RPMI8226, NCI-H929) (human) (UniProt Q9NZD1)
Assay: cell-based or functional assay

Sequence of UniProt Q9NZD1 (Q9NZD1 whole entry): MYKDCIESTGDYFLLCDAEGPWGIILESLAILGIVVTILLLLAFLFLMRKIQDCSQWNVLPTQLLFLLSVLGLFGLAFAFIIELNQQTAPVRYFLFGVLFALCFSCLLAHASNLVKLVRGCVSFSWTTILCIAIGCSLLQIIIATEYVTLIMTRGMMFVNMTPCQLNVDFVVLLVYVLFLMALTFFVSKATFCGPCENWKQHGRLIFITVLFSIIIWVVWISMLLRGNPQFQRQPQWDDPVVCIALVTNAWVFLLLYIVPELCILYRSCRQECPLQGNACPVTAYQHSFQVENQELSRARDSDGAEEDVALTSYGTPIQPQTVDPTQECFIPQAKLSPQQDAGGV

| Binder | % survival of MM.1S-ffluc cells, luciferase cytotoxicity assay, 24 h, E:T 1:1 [%] | % survival of MM.1S-ffluc cells, luciferase cytotoxicity assay, 24 h, E:T 1:2 [%] | % survival of MM.1S-ffluc cells, luciferase cytotoxicity assay, 24 h, E:T 1:4 [%] | % survival of MM.1S-ffluc cells, luciferase cytotoxicity assay, 24 h, E:T 1:8 [%] | % survival of RPMI8226-ffluc cells, luciferase cytotoxicity assay, 24 h, E:T 1:1 [%] | % survival of RPMI8226-ffluc cells, luciferase cytotoxicity assay, 24 h, E:T 1:2 [%] | % survival of RPMI8226-ffluc cells, luciferase cytotoxicity assay, 24 h, E:T 1:4 [%] | % survival of RPMI8226-ffluc cells, luciferase cytotoxicity assay, 24 h, E:T 1:8 [%] |
| --- | --- | --- | --- | --- | --- | --- | --- | --- |
| CAR2, GPRC5D chimeric antigen receptor (CAR 2 (VL-VH)), expressed on human T cells (protein, part only; not given: CAR backbone and scFv linker, not shown: small tags and cut ends) chain, part: SSELTQDPAASVALGQTVKITCQGDSLRRYFASWYQQKPGQAPTLVTYGKNRRPSGVPDRLSGSSSGDTASLTITGAQAEDEGDYYCNSRDRSGTVVFGGGTKLTVLEVQLVESGGGVVQPGRSLRLSCAASGFTFSSYAMSWVRQAPGKGLEWVSAISGSGGSTYYAGSVKGRFTISRDNSKNTLYLQMNSLRAEDTAVYYCARDLYGYRYYYYGMDVWGQGTMVTVSS | < 5 | 15 | 35 | 85 | 3 | 10 | 25 | 50 |
| CAR1, GPRC5D chimeric antigen receptor (CAR 1 (VL-VH)), expressed on human T cells (protein, part only; not given: CAR backbone and scFv linker, not shown: small tags and cut ends) chain, part: SSELTQDPAASVALGQTVRITCQGDSVRTYYAGWYQQKPGQAPVLVIYGKNHRPSGIPDRFSGSTSGNTASLTITGVQAEDEADYYCNSRDSSANPVFGGGTKVTVLQVQLVQSGAEVKKPGASVKVSCKASGYTFTSYYMHWVRQAPGQGLEWMGWINPNSGGTNYAQKFQGRVTITADKSTSTAYMELNSLRAEDTAVYYCVRSKGRAARNYYYMDVWGKGTTVTVSS | 20 | 60 | 88 | – | 12 | 40 | 70 | 90 |
